Assay results published in US20210302429.

Experiments:
[1] = system: full length human H1.0 protein
unmodified H1.0 peptide = system: T1, unmodified H1.0 peptide
T1 sequence: AKPVKASKPKKAKPVKPK

H1.0K180me2 peptide = system: T2, H1.0K180me2 peptide
T2 sequence: AKPVKASKPKKAKPVKPK

G9A methyltransferase
in vitro methylation assay with increasing amounts of G9A [1]: G9A is capable of dimethylating full length H1.0 at K180
sites of methylation, LC-MS [1]: G9A methylates C-terminal lysine residues, including H1.0K180me2
estimated methylation efficiency, LC-MS (unmodified H1.0 peptide): an estimated methylation efficiency of about 99%
in vitro methylation with tritium-labeled methyl donor, gel autoradiography (unmodified H1.0 peptide): The appearance of a band at 4 kDa shows that The G9A methyltransferase capable of methylating H1.0 peptide
peptides dimethylated at K180, LC-MS spectral counts (unmodified H1.0 peptide): 99.9% of all peptides
further methylated peptide H1.0K166me1K180me2, LC-MS (H1.0K180me2 peptide): 1.27% of the total peptide in the reaction
further methylated peptide H1.0K174me1K180me3, LC-MS (H1.0K180me2 peptide): 1.06% of the total peptide in the reaction
further methylated peptide H1.0K174me3K175me3K177me1K180me2, LC-MS (H1.0K180me2 peptide): 0.35% of the total peptide in the reaction
peptides further methylated, LC-MS (H1.0K180me2 peptide): only 2.64% of peptides are further methylated

GLP methyltransferase
sites of methylation, LC-MS [1]: GLP methylates a large number of lysine residues on the C-terminal tail of H1.0, lacking the specificity of G9A
peptides dimethylated at K180, LC-MS spectral counts (unmodified H1.0 peptide): 96.6% of all peptides
peptides further methylated, LC-MS (H1.0K180me2 peptide): 1.02% of peptides are further methylated
